# Data taken from patent US20130011436A1.
# Biological target: CXCR4 on murine 4T1 breast carcinoma cells (murine) (UniProt P70658)
# Experiment: cell-based or functional assay
# UniProt P70658, sequence (P70658 whole entry): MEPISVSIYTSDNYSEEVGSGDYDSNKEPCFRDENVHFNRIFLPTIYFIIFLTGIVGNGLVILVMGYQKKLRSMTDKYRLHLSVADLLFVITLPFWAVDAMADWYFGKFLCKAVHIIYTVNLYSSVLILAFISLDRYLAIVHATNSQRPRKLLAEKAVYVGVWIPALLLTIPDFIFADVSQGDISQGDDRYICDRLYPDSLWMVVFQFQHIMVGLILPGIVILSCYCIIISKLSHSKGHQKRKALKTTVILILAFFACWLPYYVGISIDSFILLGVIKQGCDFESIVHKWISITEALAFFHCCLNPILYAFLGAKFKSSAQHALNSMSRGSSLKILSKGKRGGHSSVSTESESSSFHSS
substance,measurement,value
CTCE-9908 peptide,"inhibition of migration of 4T1 cells toward SDF1 (1,000 ng/ml), transwell assay, antagonist at 100 µg/ml",> 80%
